The series is described as follows: self-splicing fitness, log relative to wild type (ln ratio); higher = more splicing; Tetrahymena group I intron in knt gene, E. coli kanamycin selection, DiMSum; sequences stand for … in CUCUCU…GGAGGGAAAAGUUAUCAGGCAUGCACCUGGUAGCUAGUCUUUAAACCAAUAGAUUGCAUCGGUUUAAAAGGCAAGACCGUCAAAUUGCGGGAAAGGGGUCAACAGCCGUUCAGUACCAAGUCUCAGGGGAAACUUUGAGAUGGCCUUGCAAAGGGUAUGGUAAUAAGCUGACGGACAUGGUCCUAACCACGCAGCCAAGUCCUAAGUCAACAGAUCUUCUGUUGAUAUGGAUGCAGUUCACAGACUAAAUGUCGGUCGGGGAAGAUGUAUUCUUCUCAUAAGAUAUAGUCGGACCUCUCCUUAAUGGGAGCUAGCGGAUGAAGUGAUGCAACACUGGAGCCGCUGGGAACUAAUUUGUAUGCGAAAGUAUAUUGAUUAGUUUUGGAGUACUCGUGGUCG
Summed up:
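DiMSum derived fitness as the error-weighted combination of fold changes across replicates, kanamycin versus no kanamycin, normalised to wild type. E. coli BL21(DE3) held the library, which randomised all eight P1ex-region intron nucleotides within the knt kanamycin-resistance gene on pET-22b(+). Six replicate transformations grew overnight at 37°C or 30°C on LB agar with or without 25 μg/mL kanamycin, also containing 100 μg/mL carbenicillin, 50 μM IPTG and 0.2% rhamnose, and pooled colonies were amplicon-sequenced on an Illumina HiSeq 2500.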

The results in this text go back to the supplement of paper PMC7877785.

± gives the uncertainty stated by the source.

As for AGACAGCAAUAUUACGUUUC, the “self-splicing fitness (ln)” value was -4.68 ± 0.36 (30 °C) and -3.7 ± 0.42 (37 °C).

For the sequence AUUCAGCAAUAUUACGAUUG, the “self-splicing fitness (ln)” value reads like this: (30 °C) -1.88 ± 0.16; (37 °C) -1.05 ± 0.2.

On to GACGAGCAAUAUUACGAUUC, for which the “self-splicing fitness (ln)” value is -1.39 ± 0.11 (30 °C) and -1.47 ± 0.17 (37 °C). The like results for AGGCAGCAAUAUUACGUCAG were, in that order, -1.92 ± 0.12 and -0.461 ± 0.12. Consider CUUAAGCAAUAUUACGCGGC, for which the “self-splicing fitness (ln)” value runs as follows: (30 °C) -2.93 ± 0.24; (37 °C) -2.48 ± 0.27. Take GGAUAGCAAUAUUACGAUGG: the “self-splicing fitness (ln)” value (30 °C) is -1.27 ± 0.38.

Regarding GGCAAGCAAUAUUACGUGGC, the “self-splicing fitness (ln)” value by setting is: (30 °C) -3.53 ± 0.34; (37 °C) -1.28 ± 0.19. The like results for CAUUAGCAAUAUUACGCCUG were, in that order, -1.4 ± 0.12 and -0.136 ± 0.12. The like results for UGGCAGCAAUAUUACGUAAC were, in that order, -3.2 ± 0.22 and -2.16 ± 0.26. The like results for UAAUAGCAAUAUUACGCGUA were, in that order, -1.85 ± 0.14 and -0.713 ± 0.12. Regarding UCAGAGCAAUAUUACGGGGC, the “self-splicing fitness (ln)” value (30 °C) is -3.3 ± 0.26 and the “self-splicing fitness (ln)” value (37 °C) is -2.42 ± 0.41.

As for GUGCAGCAAUAUUACGCUGA, the “self-splicing fitness (ln)” value is -2.38 ± 0.17 (30 °C) and -1.6 ± 0.16 (37 °C). The like results for CAGCAGCAAUAUUACGGCUU were, in that order, -0.00706 ± 0.07 and 0.453 ± 0.088. With AGCGAGCAAUAUUACGAUAC, the “self-splicing fitness (ln)” value by setting is: (30 °C) -3.47 ± 0.47; (37 °C) -2.29 ± 0.39. The like results for UUCAAGCAAUAUUACGGGAU were, in that order, -3.11 ± 0.13 and -1.4 ± 0.14. The like results for UGCAAGCAAUAUUACGUGCU were, in that order, -2.02 ± 0.1 and -0.559 ± 0.094. The like results for GUGUAGCAAUAUUACGAUGG were, in that order, -2.91 ± 0.19 and -1.81 ± 0.18. UUAAAGCAAUAUUACGCGGC: the “self-splicing fitness (ln)” value was -2.74 ± 0.29 (30 °C) and -1.03 ± 0.2 (37 °C). Consider CACGAGCAAUAUUACGGGAA, for which the “self-splicing fitness (ln)” value reads like this: (30 °C) -2.95 ± 0.2; (37 °C) -3.1 ± 0.29. The like results for AUUCAGCAAUAUUACGGUCU were, in that order, -0.633 ± 0.073 and 0.126 ± 0.093. Consider UCCAAGCAAUAUUACGACGC, for which the “self-splicing fitness (ln)” value by setting is: (30 °C) -2.45 ± 0.18; (37 °C) -1.25 ± 0.14. The like results for AACGAGCAAUAUUACGCCAU were, in that order, -2.91 ± 0.27 and -1.52 ± 0.27.

For the sequence CAGGAGCAAUAUUACGACUA, the “self-splicing fitness (ln)” value is 0.224 ± 0.31 (30 °C) and -0.98 ± 0.34 (37 °C). With GCAGAGCAAUAUUACGAAGU, the “self-splicing fitness (ln)” value runs as follows: (30 °C) -2.88 ± 0.12; (37 °C) -1.03 ± 0.13. CAAAAGCAAUAUUACGGGGC: the “self-splicing fitness (ln)” value is -3.66 ± 0.26 (30 °C) and -3.02 ± 0.23 (37 °C). Consider CAAUAGCAAUAUUACGGGCC, for which the “self-splicing fitness (ln)” value (37 °C) is -1.94 ± 0.29. Regarding GUUAAGCAAUAUUACGUGGU, the “self-splicing fitness (ln)” value by setting is: (30 °C) -2.79 ± 0.15; (37 °C) -2.35 ± 0.19.

For the sequence CUUAAGCAAUAUUACGGUCA, the “self-splicing fitness (ln)” value was -3.8 ± 0.46 (30 °C) and -3.15 ± 0.32 (37 °C). Regarding GGAUAGCAAUAUUACGCUCG, the “self-splicing fitness (ln)” value is, setting by setting: (30 °C) -0.451 ± 0.24; (37 °C) -0.208 ± 0.35. The like results for CGUGAGCAAUAUUACGCGAA were, in that order, -2.35 ± 0.14 and -3.33 ± 0.29. The like results for GCCUAGCAAUAUUACGGCCA were, in that order, -1.81 ± 0.33 and -1.52 ± 0.35. Turning to AUCCAGCAAUAUUACGACCC, the “self-splicing fitness (ln)” value (30 °C) is -1.24 ± 0.071 and the “self-splicing fitness (ln)” value (37 °C) is -0.202 ± 0.089. As to GCGUAGCAAUAUUACGAAAA, the “self-splicing fitness (ln)” value by setting is: (30 °C) -2.22 ± 0.41; (37 °C) -1.48 ± 0.25.

For the sequence CCGAAGCAAUAUUACGCUAU, for the setting “37 °C”, the “self-splicing fitness (ln)” value was -2.24 ± 0.25.
